Test results: patent US20030207263A1, “Method of screening therapeutic agents” (priority 1998, published 2003)

Assays:
[1] = tested on: CAGA-reporter cells (i.e F89 or 1613); experiment: Toxic-compound control wells of the automated high throughput transcriptional screen; type: cell-based, human; details: 500 μM CPO in the presence of TGFβ
[2] = tested on: CAGA box-mediated transcription ((CAGA)9MLP-Luc, clone F89); experiment: TGFβ-responsive (CAGA)9MLP-Luc firefly luciferase reporter, stable clone F89; details: for relative firefly luciferase activities (fold induction): value 1 = absence of TGFβ
Experimental: (§2) Thus, the renilla luciferase activity can be used as an internal toxicity control.
(§3) At day 1, 40 (96 well-) microplates are seeded, using a multidrop apparatus, with CAGA-reporter cells (i.e F89 or 1613) at a concentration of 35000 cells per well in 200 μl of serum-containing medium.
(§4) 8 to 24 hours later (Day 2), microplates containing the chemical compounds to be tested, diluted in 100% DMSO, are placed in a carousel and the cell-incubation procedure is launched. The computer system coordinates then the actions of different peripheric equipments in order to incubate the cells in the presence of TGFβ with the coumpounds to be tested.
(§5) Cells and compounds microplates are moved through the robotic line to the adequate peripheries by the axial rotatable arm. Cells are washed and incubated in a serum-free medium. The pippetage station realizes different operations including preliminary dilutions in order to incubate the cells with TGFβ and the chemical compounds to be tested. The final concentration of TGFβ (rhTGFβ-1 from R & D) used in the test is 1 ng/mL and the compounds are tested at a final concentration of 10 μl in a final concentration of DMSO of 1%. Cells are incubated with the compounds to be tested 15-30 mn prior the addition of TGFβ. The final volume of the test reaction is 150 μl. Wells A1 through H10 are the test wells and contain cells incubated with the chemical agents to be tested in the presence of TGFβ. Each well contains only one singular chemical compound and allows to test its effect on CAGA-mediated transcription. Columns 11 and 12 are kept for controls. Column 11 contains 8 wells where cells are incubated in the presence of TGFβ without chemical compounds. Column 11 determines of the reference TGFβ-induced firefly luciferase value to which will be compared the values measured in the test wells to identify potential inhibitor or activator coumpounds. In wells A12 to D12, cells are grown in medium without TGFβ. The firefly luciferase value obtained with these points represents the ‘basal firefly luciferase activity’ and allows to control that the TGFβ induction is correct. In wells E12 to H12, cells are incubated in the presence of TGFβ with 500 μM CPO (Cyclopentenone, Sigma) which is a cell toxic compound. […] These points allows to control that the test is sensitive to toxic compounds.
(§6) 12 to 18 hours later (day 3), the luciferase quantification procedure is launched. The following reactions are realized using reagents of the Dual Luciferase Assay Kit from Promega. Cells are washed and lysed with the addition of 10 μl of passive lysis buffer (Promega). After 15 to 30 mn of agitation, luciferase activities of the plates are read in a dual-injector luminometer (BMG lumistar).

[3] = tested on: human PAI-1 promoter (PAI-1-Luc, clone 1613); experiment: Human PAI-1-Luc firefly luciferase reporter, stable clone 1613; details: for relative firefly luciferase activities (fold induction): value 1 = absence of TGFβ
Experimental: as §2, §3, §4, §5, §6

[4] = tested on: renilla luciferase driven by the RSV LTR, clone 1613; experiment: Renilla luciferase specificity/toxicity control (pRc/Renilla), clone 1613; details: for relative renilla luciferase activities (fold induction): value 1 = absence of TGFβ
Excerpt: (§1) The expression of this transgene should not be regulated by TGFβ or activin, i.e. it should not contain CAGA sequences in its regulatory regions. For instance, the renilla-luciferase gene can be transcribed from the RSV (Rous Sarcoma Virus) promoter or SV (Simian Virus 40) promoter. […] This means that an agent acting specifically through CAGA boxes-mediated transcription will have an effect on the firefly luciferase activity but not on the renilla luciferase activity.

[5] = tested on: renilla luciferase driven by the RSV LTR, clone F89; experiment: Renilla luciferase specificity/toxicity control (pRc/Renilla), clone F89; details: for relative renilla luciferase activities (fold induction): value 1 = absence of TGFβ
Excerpt: as §1

[6] = tested on: CAGA box reporter vector in HepG2 cells
Experimental: (§7) FIG. 1C: HepG2 and Mv1Lu cells were transfected with p3TP-Lux or a vector containing nine or twelve copies of the CAGA box upstream of the minimal Adenovirus Major Late Promoter (MLP). Fold inductions by TGFβ are given for HepG2 cells.
(§8) FIG. 3B: HepG2 cells were transfected with a (CAGA)12-MLP-Luc reporter construct and induced by BMP-7, activin or TGFβ (respectively 100 ng/mL, 20 ng/mL and 10 ng/mL).
(§9) HepG2 and MDA-MB468 cells were transiently transfected, with the indicated constructs and the internal control pRL-TK vector, using the calcium phosphate co-precipitation method. When increasing amounts of expression vectors were transfected, total DNA was kept constant by addition of pCMV5. Cells were serum starved for 8 h before stimulation with 7 ng/mL of human recombinant TGFβ1 (R&D) and luciferases activities were quantified 14 h later using the Dual Luciferase Assay (Promega). For activin and BMP-7 (Creative Biomolecules) induction, respectively 20 ng/mL and 100 ng/mL were used. Values were normalized with the renilla luciferase activity expressed from pRL-TK. […] Luciferase values shown in figures are representative of transfection experiments done at least three times.

[7] = tested on: CAGA box reporter vector in HepG2 cells; experiment: Transient CAGA boxes-MLP-Luc reporter in HepG2 cells; details: (CAGA)12-MLP-Luc, TGFβ 10 ng/mL
Experimental: as §7, §8, §9

Compound: O=C1C=CCC1 [CPO, Cyclopentenone]
- firefly luciferase activity relative to TGFβ-only wells [1]: around 50%
- renilla luciferase activity relative to TGFβ-only wells [1]: around 50%

Compound: CCOc1cc(/C=C(\C#N)C(N)=O)cc(CSc2ccccc2)c1O [Compound A, α-cyano4-hydroxy-3-ethoxy-5-phenylthiomethyl cinnamamide]
- firefly luciferase activity (value 100 = absence of compound A, 1 ng/mL TGFβ) ([2]; compound A 0.1 μM): 98
- firefly luciferase activity (value 100 = absence of compound A, 1 ng/mL TGFβ) ([2]; compound A 1 μM): 95
- firefly luciferase activity (value 100 = absence of compound A, 1 ng/mL TGFβ) ([2]; compound A 5 μM): 86
- firefly luciferase activity (value 100 = absence of compound A, 1 ng/mL TGFβ) ([2]; compound A 10 μM): 23
- firefly luciferase activity (value 100 = absence of compound A, 1 ng/mL TGFβ) ([3]; compound A 0.1 μM): 105
- firefly luciferase activity (value 100 = absence of compound A, 1 ng/mL TGFβ) ([3]; compound A 1 μM): 102
- firefly luciferase activity (value 100 = absence of compound A, 1 ng/mL TGFβ) ([3]; compound A 5 μM): 65
- firefly luciferase activity (value 100 = absence of compound A, 1 ng/mL TGFβ) ([3]; compound A 10 μM): 36
- inhibitory effect on the renilla luciferase activities ([4]; specificity/toxicity control): not on the renilla luciferase activities
- inhibitory effect on the renilla luciferase activities ([5]; specificity/toxicity control): not on the renilla luciferase activities

Compound: TGFβ: human recombinant TGFβ1 (R&D), cytokine used to induce CAGA box-mediated transcription
- TGFβ-mediated fold induction [6]: Several hundred
- relative firefly luciferase activities (fold induction) ([2]; TGFβ 0.2 ng/mL): 6 fold induction
- relative firefly luciferase activities (fold induction) ([2]; TGFβ 0.5 ng/mL): 31 fold induction
- relative firefly luciferase activities (fold induction) ([2]; TGFβ 1 ng/mL): 109 fold induction
- relative firefly luciferase activities (fold induction) ([2]; TGFβ 5 ng/mL): 461 fold induction
- relative firefly luciferase activities (fold induction) ([2]; TGFβ 10 ng/mL): 737 fold induction
- relative firefly luciferase activities (fold induction) ([3]; TGFβ 0.2 ng/mL): 8 fold induction
- relative firefly luciferase activities (fold induction) ([3]; TGFβ 1 ng/mL): 26.2 fold induction
- relative firefly luciferase activities (fold induction) ([3]; TGFβ 5 ng/mL): 43.5 fold induction
- relative firefly luciferase activities (fold induction) ([3]; TGFβ 10 ng/mL): 50.1 fold induction
- relative renilla luciferase activities (fold induction) ([4]; TGFβ 0.2 ng/mL): 0.8 fold induction
- relative renilla luciferase activities (fold induction) ([4]; TGFβ 1 ng/mL): 1 fold induction
- relative renilla luciferase activities (fold induction) ([4]; TGFβ 5 ng/mL): 1 fold induction
- relative renilla luciferase activities (fold induction) ([4]; TGFβ 10 ng/mL): 1.3 fold induction
- relative renilla luciferase activities (fold induction) ([5]; TGFβ 0.2 ng/mL): 1.1 fold induction
- relative renilla luciferase activities (fold induction) ([5]; TGFβ 0.5 ng/mL): 1.1 fold induction
- relative renilla luciferase activities (fold induction) ([5]; TGFβ 1 ng/mL): 1.2 fold induction
- relative renilla luciferase activities (fold induction) ([5]; TGFβ 5 ng/mL): 1.5 fold induction
- relative renilla luciferase activities (fold induction) ([5]; TGFβ 10 ng/mL): 1.8 fold induction
- fold induction of CAGA boxes containing reporter [7]: 200 fold
